B1: ZNF449 (parent)
chain: YRHQRLHTGERPYECTVCKKRFTR

Variants of: B1
Test: protein stability index of a GFP-peptide fusion (GPS, HEK-293T) (PSI 1-6); higher = more stable
Details: c terminus: a fixed tail appended
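Also: lentivirally expressed fusions sorted by FACS into six bins by GFP to DsRed ratio, PSI derived from sequencing read proportions per bin multiplied by bin number.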

Protein stability index: each site, then its substitutions
E14: N 2.7, L 2.38, M 2.58, G 2.42, S 2.69, A 2.5, K 2.97, R 2.6, F 2.11, I 2.77, T 2.44, Q 2.54, V 2.84, D 2.23, H 2.52, C 2.57, P 2.93, Y 2.39, W 2.59
G9: Y 2.1, S 2.33, R 2.45, I 2.4, F 2.01, T 2.23, L 2.21, W 1.91, H 2.81, E 2.31, P 2.04, C 3.86, A 2.26, V 2.07, Q 2.1, M 2.25, K 2.42, D 2.35, N 2.54
P12: V 2.87, N 2.71, Y 2.62, W 2.44, H 2.26, G 2.21, S 2.34, L 2.22, I 2.1, C 2.37, T 2.88, R 2.98, M 2.32, A 2.54, E 2.38, K 2.62, Q 2.2, F 2.19, D 2.83
K20: E 2.1, S 2.08, D 1.89, V 2.3, C 2.2, W 1.61, Q 2.29, I 2.26, A 1.95, F 2.15, R 1.9, H 2.17, L 1.73, T 2.03, N 2.1, M 2.25, G 2.36, Y 2.46, P 2.69
Q4: G 2.34, D 2.22, V 2.13, A 2.44, C 2.99, F 1.88, T 2.64, I 1.93, N 2.24, S 2.35, Y 1.78, K 2.39, W 2.11, E 2.3, M 1.73, R 2.36, H 3.41, L 1.78, P 2.03
C15: R 3.53, A 3.02, S 3.02, T 2.88, H 3.33, L 3.11, Q 3.91, M 2.98, V 2.85, K 3.42, G 3.7, I 2.55, D 3.51, W 3.07, F 3.02, Y 3.07, E 3.35, P 3.4, N 3.44
R11: L 2.09, C 3.21, V 1.85, M 1.79, I 2.22, T 2.1, W 2.2, H 2.43, Q 2.48, G 2.71, Y 2.76, F 2.68, P 2.33, E 2.08, K 2.59, S 2.43, A 2.26, N 2.1, D 2.67
T16: M 1.98, Q 2.27, W 2.03, E 2.25, D 2.52, Y 2.75, S 2.39, G 2.33, K 2.78, F 2.14, R 2.51, I 2.34, V 2.07, H 2.24, N 2.46, P 2.22, C 2.09, A 2.12, L 2.08
E10: I 2.32, R 2.81, Y 3.09, S 2.62, K 2.15, G 2.24, W 2.34, P 2.58, N 2.6, A 2.38, Q 2.54, F 2.35, M 1.91, C 2.57, T 2.48, L 2.13, D 2.28, V 2.4, H 2.88
Y13: G 2.55, Q 2.67, H 2.69, F 2.86, N 2.04, R 2.32, I 2.09, A 2.43, T 2.51, D 2.11, M 2.69, K 2.25, L 2.08, V 2.21, P 2.35, W 2.44, S 2.08, C 3.74, E 2.63
R21: A 2.06
C18: R 3.65, T 3.6, H 3.48, P 3.45, Q 3.27, I 3.15, S 3.38, E 3.48, L 2.6, W 2.21, M 2.56, K 3.77, D 3.24, F 2.38, G 3.37, V 3.48, N 3.43, Y 2.96, A 3.39
R5: D 2.06, M 2.25, H 3, Q 2.61, N 2.21, T 1.69, K 2.18, S 2.24, E 1.91, C 3.51, A 2.08, G 2.31, I 1.89, W 2.29, V 2.19, F 2.49, Y 2.2, P 2.08, L 2.15
L6: V 2.17, S 2.38, E 2.09, W 2.38, M 2.37, I 2.37, D 2.37, G 2.61, P 2.4, Y 2.74, K 2.34, H 2.73, N 2.63, A 2.77, Q 2.38, T 2.51, R 2.7, F 2.17, C 3.06
K19: R 2.34, Y 1.95, G 2.15, M 2.12, C 2.12, D 1.96, I 2.58, H 1.55, L 2.2, F 2.33, E 2.01, V 2.3, W 2.07, P 2.69, N 2.19, A 2.68, Q 2.57, T 2.77, S 1.74
H7: C 2.65, Y 1.61, F 1.46, W 3.01, I 2.16, G 2.14, Q 2.53, P 1.84, A 2.17, K 2.75, M 1.97, N 2.64, V 2.18, E 2.09, T 2.35, L 2.15, S 2.05, D 1.92, R 2.24
T8: N 2.56, Y 2.22, F 2.31, M 2.83, C 2.4, A 2.32, V 2.29, W 2.39, P 2.52, K 2.19, I 2.41, H 2.7, Q 2.59, S 2.71, R 2.87, D 2.27, L 1.97, G 2.38, E 2.24
H3: Y 1.81, V 2.03, R 2.44, S 2.35, P 2.68, W 1.65, N 2.69, T 2.56, Q 2.21, M 2.14
V17: P 3.17, K 3.69, F 2.37, H 2.64, Y 2.2, E 2.37, S 2.5, D 3.07, G 2.63, N 2.87, T 2.85, Q 2.47, M 2.21, L 2.56, R 2.55, W 2.28, C 2.65, A 2.48, I 2.25

Source: the supplement of paper PMC10567573
